{"source": "paper PMC5963937", "origin": "cited, not measured here", "biological_target": "LPL (Homo sapiens) (UniProt P06858)", "sequence (P06858 28-475)": "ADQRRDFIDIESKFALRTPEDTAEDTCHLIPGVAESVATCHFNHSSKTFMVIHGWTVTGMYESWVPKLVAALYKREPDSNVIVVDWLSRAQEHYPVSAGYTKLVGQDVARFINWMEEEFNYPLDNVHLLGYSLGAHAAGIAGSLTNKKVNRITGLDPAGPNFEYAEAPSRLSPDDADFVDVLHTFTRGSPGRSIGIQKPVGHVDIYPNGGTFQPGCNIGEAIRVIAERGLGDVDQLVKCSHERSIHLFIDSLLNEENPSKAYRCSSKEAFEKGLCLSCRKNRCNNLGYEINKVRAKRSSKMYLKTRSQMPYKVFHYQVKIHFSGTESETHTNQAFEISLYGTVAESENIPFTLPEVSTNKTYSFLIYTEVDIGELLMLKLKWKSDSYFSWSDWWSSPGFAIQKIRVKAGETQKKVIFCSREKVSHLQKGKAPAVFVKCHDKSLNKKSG", "data": [{"substance": "GPIHBP1 (from UniProt Q8IV16)", "values": [{"measurement": "Kd", "result": 25, "unit": "nM"}]}]}
